From the DeepSol protein solubility set

Assay: soluble on expression in E. coli; label from the status in PepcDB or PDB records

| Sequence | soluble on expression in E. coli |
| --- | --- |
| MPASQIKSAVTSPLLPQSPSLFEKYPRPHKKLKQLHWEKLDCTDNSIWGTGKAEKFADDLYEKGVLADLEKAFAAREIKSLASKRKEDLQKITFLSRDISQQFGINLHMYSSLSVADLVKKILNCDRDFLQTPSVVEFLSKSEIIEVSVNLARNYAPYSTDWEGVRNLEDAKPPEKDPNDLQRADQIYLQLMVNLESYWGSRMRALTVVTSYEREYNELLAKLRKVDKAVSALQESDNLRNVFNVILAVGNFMNDTSKQAQGFKLSTLQRLTFIKDTTNSMTFLNYVEKIVRLNYPSFNDFLSELEPVLDVVKVSIEQLVNDCKDFSQSIVNVERSVEIGNLSDSSKFHPLDKVLIKTLPVLPEARKKGDLLEDEVKLTIMEFESLMHTYGEDSGDKFAKISFFKKFADFINEYKKAQAQNLAAEEEERLYIKHKKIVEEQQK | soluble |
| MPCSFAPGFLALTVAIHPGTTAQPSQQSPRAFPFFRPVLAQLMKHRVAQESTRRWLDRIIQIIKYAYCQKLRRHFCQATLWKMIQLIVNGQSQLVPSPDSGTDSGTTNDARLNIRQLLEHMGLQGKRIAVERNGEIVPRSQFDQPMLASGDKLEIVVAVGGGLEHHHHHH | not soluble |
| MPDAVVIGAGPNGLVAANLLADAGWSVTVLEEQDEPGGAVRHDNGVDPDFTTDLFSSFYPLAAASPVLAGLHLEREGLRWSHAPRVLAHPLSDGRCAVLGRDLDDTAASLDTFADGDGAAWRELHDVWERLRPDLLDALFTPFPPVRAGARLAARLRAGGGLRLARSLVLPVRRLGEEEFRGEGGRLLLAGNALHADLAPEAAGSGGFGWLMSMLGQTYGFPVPVGGSGALTSALTQRLHRRGGVLRCGQRVSEVVVRQGRAVAVRTAGGETVPARRAVLADVSVPALYGTLVGSAHLPAQVLADLRRFQWDFATFKVDWALDGPVPWQADAASAAGTVHLADGVDELTRFAAQIAMRQVPDRPFALFGQMTTADATRSPEGTEAAWAYTHVPHRIAGDAGDAGLAGTWDAREQELMADRVERQVERFAPGFRSLIRARRILAPPTLQSLNANLYGGAINGGTTALHQQLVFRPIPGTGRPETPVANLFLASAGAHPGGGVHGAPGANAARAALRKHLPSGLTRAQRLLTRRNRKGERDTGFGGLEHHHHHH | not soluble |
| MPDEAVDGSTPDQGKKNNNGRGRGQGSGGNRGRGGSTANNNASRRPNPARQNQSSRQPTKVDMKKYERMISAAHTNFSDIPCGQKSIDCDICCKKNDVFGIGSCRHPVCAECVIRMRILGNSKTCPVCRSDIDILSFCTTDDDLANVPLSFKKTAHPDEDRYDIRFSNKIAGTKYEKYLAHVCKICKTDDGERLEFPSFMSLRQHMASRHEQSYCHICTDNLNLFSRERKTYTRDQLQRHMRSGDFDDKSFKGHPQCLFCEQKFLDEENRYRHLRKDHFFCQFCESDGTMTNVFFGKHDGLKKHYKEHHYICETEECREMGIAFANKFELDLHRANEHAERRNLIELGFGQRPSDPGRPIGRGRGLRSNEPPPPPVPRERIAVVQRQVETNPQSDPSQFTTVRSAQSKGVFTSTRSAYTSNQQEFPSLAPQAPPPNVRSSEFPRLNKANKPAAPAAPAVVDHFPSLGDSSSSSSAPPLRIKVPPLVKKRQPPPPAPAPQKAKASSARQNAPREEDDEYISRRDVPQAVVKVNNSLLRFDTVDDRVIPQNAKSNIQMIQRVDQKSAAESSSSAPSSGRLDFPALPAASAPMMPANSSWLNSKNSKIKSGVISSVSVPANYSKATQNKNKKKNKISVPKTEVWSSLGPPPDSAVASVPVETWQDIPLSKEAQLEKEKRERKEDWARKKAEIQARVAAASKDKSNEVDSDSEPEPARPITPPVHHSNIEKSESSEWTMANSKSGDSLKNAQLMANQKKNKKNKNNMEIPSANKVPSSQSSIVPSAPKVDSLIVEKVVAKTEPKNDENQDKPDLWNMPKLPSMTSMFSSFSLSGMFGMGTSYSDSSSMAAPPPGLENVVLTPPPGLGFPSPKSDDISFASAPILSHDDVKAKRERLEAEKQKNQKEAEKEDDGWVTTSKPKNNKKNNKK | not soluble |
| MPDGQRVTKRSEDSRYFTVQPADTPGMANAQGYLPAHDAAGFDKRLDAIAATVCPNDPRTPDQRRADALGALGRYRDTLDCQCGREDCTAVAERDAVNNAMIHVLAEQSTLDGGNEPGYLPGFGMLPAHMVREVAKTATTKPVTIPKDKAQSGYRPNAELTEFIRWRDLTCRFPGCDAPAMAADIDHTRPLEHHHHHH | soluble |
| MPDIFQQEARGWLRCGAPPFAGAVAGLTTKHGGESKGPFASLNMGLHVGDDRTDVVNNRRRLAEWLAFPLERWVCCEQVHGADIQKVTKSDRGNGAQDFATAVPGVDGLYTDEAGVLLALCFADCVPIYFVAPSAGLVGLAHAGWRGTAGGIAGHMVWLWQTREHIAPSDIYVAIGPAIGPCCYTVDDRVVDSLRPTLPPESPLPWRETSPGQYALDLKEANRLQLLAAGVPNSHIYVSERCTSCEEALFFSHRRDRGTTGRMLAFIGRREEWT | soluble |
| MPDRTTDDFGPFTEQIRGTIDGMGTAEFDALPVGAIQVDGSGVIHRYNRTESRLSGRIPERVIGRNFFTEVAPCTNIPAFSGRFMDGVTSGTLDARFDFVFDFQMAPVRVQIRMQNAGVPDRYWIFVRK | soluble |
| MPDSPTPGRRERKKAATRQAIADAALQLFLEHGFDRVSVRDVAERADVSTTTLFAHFPSKESLVFDREQEVDAALAAAVRERPDGQGVVEALRAHALESWVPIVTDPRRARFTALVSDTPALREYSERMWMRHADTLSTVIAEELDREPDDSACAALARFVLEIPALTTGRHDPRATVETVFDLLLHGWRSQAGPRPPQADGR | not soluble |
| MPEYKAPLRDMRFLIDEVFDFHGRYQALGASDATPDMVAAILDEGSKFCEQVLAPLNRSGDEEGCHFDNGVVTTPKGFKEAYAQYVEGGWNGVASDPAYGGQGLPHSLGLLLSEMIGASNVSWGMYPGLTRGAMSAIHAHGSQAQKDLYLARMTAGTWTGTMCLTEPHCGTDLGIIKTRAVPNADGSHAISGTKIFISAGEHDLSENIVHLVLAKLPDAPAGTKGISLFIVPKFLPDAEGNVGARNAVSCGSIEHKMGIKASATCVMNFDGATGYLIGEPNKGLHCMFTMMNHARLGTGMQGLCLGETSYQGAVRYARERLQMRSLTGPKAPDKPADPIIVHPDVRRMLLTMKAFNEGNRALAYFTAQLLDTEHLSQDAAERERAADLLAFLTPICKAFMTETGQEVTNLGMQVYGGHGYIREWGMEQLVRDCRIAQIYEGTNGIQALDLLGRKVLGSQGKLLRGFTKLVHQLCQAQAEHPQLKGQVAQLAALNAQWGELTQQVGLAAMKNADEVGAASVDYLMFSGYVTLAYFWLRIALVAREKLDAGSGEAAFYEAKLATADFYFSR | not soluble |
| MPFHIGSGCLPAIISNRRIYRIAWSDTPPEMSSWEKMKEFFCSTHQAEALECIWTICHPPAGTTREDVVSRFELLRTLAYDGWEENIHSGLHGENYFCILDEDSQEILSVTLDDVGNYTVNCQGYSETHHLTMATEPGVERTDITYNLTSDIDAAAYLEELKQNPIINNKIMNPVGQCESLMTPVSNFMNEKGFDNIRYRGIFIWDKPTEEIPTNHFAVVGNKEGKDYVFDVSAHQFENRGMSNLNGPLILSADEWVCKYRMATRRKLIYYTDFSNSSIAANAYDALPRELESESMAGKVFVTSPRWFNTFKKQKYSLIGKM | not soluble |
| MPFHLALGLSNCEQIYEPGGTIEGYVTFDLRESVKVKAIRISAEGLATTKWLLSESSKSSHGRSREVSYSAKVTYLDEEQMVWKPSEGHSKSSVFPGIHVYPFKFQIPIGVPPSFEGDHGNIRYHMKATVERPWKTNRSVTRYLTILPPKDLNKEVLASEETSSWKSKKIRIPKKGYVPGETISIETNIDNMSSRPILKTECYLIQQCRFLAYRYGISGPTDGRRASSLSENDRYLSRKRDEIKIVSVIHEMHIEPRTEHKAKMRLKIPCTCPTFDSTLIHVEYFVVVKLHVKCRMRNTVKAECPIIIGSKPLADEHVDPRTPTYQEVATFSALTHRSMMSVDEKLTPKYVYYPKYGKSRDDEADEPPSLTDLQLPPIDSLSDDD | not soluble |
| MPFKLSPDCIVLAEPEKLHYPGDTVSGHIVLKFEKFSTCRAITLTVKGKAETGWDNVTKVGQWTYFNESGVLWKAEMSENRIEPGTHRIPFDYTVPENIPQSFEGPFGFIRFYIKVHMDRPHALDQCVKKEFLVTQKPTVVSKKHLGPEHIIRYCQKLNCNRGEIYFEAQLSNRIIFFDDPISLIIKIKNCSSRTIKKISLEAFQRIEYYSTTSACRKTHSVLIGKTGKSELKIRNDEIAISTFSMKFKEPATPSFASELIQVSYVLLVNLFTDGFWAAPLVFPVEFEVGKKSDVGTEDEETCDGLINFDED | not soluble |
| MPGLEKTRIVDPILTNVAIGYKNAEYVGESLFPVVPVDKEQGKIPKWGAEAFRIYNTRRQIRSKTNRIEMDATTVPYSLEEEALEAPIDDRELEEAAEVLKLEMSRTKMLTDNIRLKMEKDQADVAQNVANYSPGHVEALSGTDKFSDPASKPIDVIGDARATVRSKIGIYPNVLLMGASVYEVLKNHSAIIDKIKYSQKGIATPTCSQKSST | not soluble |
| MPGLLLCEPTELYNILNQATKLSRLTDPNYLCLLDVRSKWEYDESHVITALRVKKKNNEYLLPESVDLECVKYCVVYDNNSSTLEILLKDDDDDSDSDGDGKDLVPQAAIEYGRILTRLTHHPVYILKGGYERFSGTYHFLRTQKIIWMPQELDAFQPYPIEIVPGKVFVGNFSQACDPKIQKDLKIKAHVNVSMDTGPFFAGDADKLLHIRIEDSPEAQILPFLRHMCHFIEIHHHLGSVILIFSTQGISRSCAAIIAYLMHSNEQTLQRSWAYVKKCKNNMCPNRGLVSQLLEWEKTILGDSITNIMDPLY | soluble |
| MPHLALLISKGAIMDRIIQSPGKYIQGADVINRLGEYLKPLAERWLVVGDKFVLGFAQSTVEKSFKDAGLVVEIAPFGGECSQNEIDRLRGIAETAQCGAILGIGGGKTLDTAKALAHFMGVPVAIAPTIASTDAPCSALSVIYTDEGEFDRYLLLPNNPNMVIVDTKIVAGAPARLLAAGIGDALATWFEARACSRSGATTMAGGKCTQAALALAELCYNTLLEEGEKAMLAAEQHVVTPALERVIEANTYLSGVGFESGGLAAAHAVHNGLTAIPDAHHYYHGEKVAFGTLTQLVLENAPVEEIETVAALSHAVGLPITLAQLDIKEDVPAKMRIVAEAACAEGETIHNMPGGATPDQVYAALLVADQYGQRFLQEWE | not soluble |
| MPIEIERRFLIGNDNWRQYADEPLLLRQGYLSVEKERTVRVRIAGKQAWLTLKGYISEISRSEFEYEIPLADAEKMMETMCPFKMEKWRYPVRWGGSLFEIDVFLGDNAPLVVAEIELPDENADFDRPDWLGREITADGMFTNAYLSRHPFSSWKNAV | not soluble |
| MPIIASESSHESIPQDFMDAVESMHKAQLRPEISLGTIRPPQRLAPFSHAVGLEVSGTLSDDSQGDAFGRLILLHDPTSDESWDGSMRLVAYIQADMDASVANDPLLPDVAWQWLTEALDKTHADHTNLGGTVTATASVRFGEIGGPPRAYQVEMRASWTATAIDLAPHVSAFAQVLANVAGLSPEGTTSISR | not soluble |
| MPILFDCNAIASQVLKDEASALLESVGQFQKPNDLEAIVKLILKSQENGGKLVIVGVGKSALVAQKIVASMLSTGNRSAFLHPTEAMHGDLGMVEKNDVVLMISYGGESLELLNLVSHLKRLSHKIITFTKSPNSSLSKLGDYYLSLKIQKEACPINTAPTTSTTLTLALGDVLMACLMRAKNFSQEDFASFHPGGLLGKKLFVKVKDLLQTTNLPLIAPSTSFKDALIEMSEKRLGSAILVNEANELVGVLSDGDVRRALLKGVSLKSEVRHFATLKPKSFKNLDALLLEALEFLERHKIQLLVCVDDHNKVLGVLHLHQLLELGLKA | not soluble |
| MPINGIKIKNSSGEEVYVLKEKGSVVNFGREKKVCHITFDPHAARVSRIHASIEWGDEGLFFTDKSKEGTEINGTRLKQSSQELHEGVYQLAIGGISMTLEVDGDELEETVIDSPQPDESSTVPETVYEESRYSNSSIKEMPAVEVTDDE | not soluble |
